The record followed here is patent US20220064303A1 (GIGAGEN, published 2022).

By Kd is commonly meant the constant that tells how readily two partners part at equilibrium. High values mean weaker binding, low ones tighter binding.

The target of test [1] is CTLA-4 on CTLA-4 effector cells (CTLA-4 Blockade Bioassay, Promega) (UniProt P16410 36-223, limits assumed). Put plainly: cell-based or functional assay.
The target in a further test is T1, Cyno CTLA4 (cyno, UniProt G7PL88 36-161).
T1 construct: Soluble antigen used as analyte in BLI
Put plainly: BLI (Octet Red96), mAb on AHC biosensor, antigen as analyte. As for the experimental part: The binding specificity and affinity of each full-length antibody towards CTLA-4 were determined using biolayer interferometry (BLI) and/or surface plasmon resonance (SPR). Anti-cyno CTLA-4 and anti-mouse CTLA-4 affinities were tested using ForteBio (BLI). Anti-human CTLA-4 affinities were measured using Carterra (SPR).
For BLI, antibodies were loaded onto an Anti-Human IgG Fc (AHC) biosensor using the Octet Red96 system (ForteBio). Loaded biosensors were dipped into antigen dilutions beginning at 300 nM, with 6 serial dilutions at 1:3. Kinetic analysis was performed using a 1:1 binding model and global fitting.
Background: Biolayer interferometry detects binding as a change in optical thickness at a sensor tip.

CTLA-4 on CTLA-4 effector cells (CTLA-4 Blockade Bioassay, Promega), sequence (P16410 36-223 limits assumed): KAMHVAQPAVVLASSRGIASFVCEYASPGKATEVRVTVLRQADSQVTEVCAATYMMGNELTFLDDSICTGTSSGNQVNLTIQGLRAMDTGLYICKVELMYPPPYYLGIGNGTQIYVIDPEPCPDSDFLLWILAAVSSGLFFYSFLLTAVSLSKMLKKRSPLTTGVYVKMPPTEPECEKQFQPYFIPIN
T1 sequence (G7PL88 entry or part of it): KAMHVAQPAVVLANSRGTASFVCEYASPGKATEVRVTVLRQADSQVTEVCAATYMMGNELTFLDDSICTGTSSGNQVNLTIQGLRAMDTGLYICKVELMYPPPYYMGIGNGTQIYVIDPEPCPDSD

B1: A23 (antibody, V domains shown)
VH: QVQLVQSGAEVKKPGASVKVSCKASGYTFTSYGISWVRQAPGQGLEWMGWISAYNGNTYYAQKFQGRVTMTTDTSTSTAYVELRSLRSDDTAVYYCARVTGRDAFDIWGQGTMVTVSS
VL: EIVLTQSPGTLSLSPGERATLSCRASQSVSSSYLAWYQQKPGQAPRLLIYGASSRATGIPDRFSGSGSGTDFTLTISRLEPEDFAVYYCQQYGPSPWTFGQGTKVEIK
In the case of B1, the “Promega assay % inhibition” value in test [1] was 0%.

B2: A28 (antibody, V domains shown)
VH: QVQLVESGGGVVQPGRSLGLSCAASGFTFSTYGMHWVRQAPGKGLEWVAVTLYDGSNKYYADSVKGRFTISRDNSKNTLYLQMNSLRAEDTAVYYCARASLTGSFDYWGQGTLVTVSS
VL: not shown
With B2, the “Promega assay % inhibition” value in test [1] came out at 0%.

B3: Ipilimumab (antibody, V domains shown)
VH: QVQLVESGGGVVQPGRSLRLSCAASGFTFSSYTMHWVRQAPGKGLEWVTFISYDGNNKYYADSVKGRFTISRDNSKNTLYLQMNSLRAEDTAIYYCARTGWLGPFDYWGQGTLVTVSS
VL: not shown
In turn, B3 displayed a Kd in the test with Cyno CTLA4 of 1.3 nM.
